The values that follow come from paper PMC10397247.

One assay deals with T1, 4H1351-AA.
T1 chain: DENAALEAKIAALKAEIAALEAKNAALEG
In words: two-hybrid library CCmax.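 Further: natural log of median RNA to DNA barcode read ratio; higher means stronger binding.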

The target of a further assay is T2, 4H1388-AA.
T2 chain: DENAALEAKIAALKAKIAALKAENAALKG
In words: two-hybrid library CCmax.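 Further: natural log of median RNA to DNA barcode read ratio; higher means stronger binding.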 To be noted: mean of both orientations.

The next assay has as its target T3, 4H1401-AA.
T3 chain: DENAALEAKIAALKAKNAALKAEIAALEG
In words: two-hybrid library CCmax.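 Further: natural log of median RNA to DNA barcode read ratio; higher means stronger binding.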 As to conditions: mean of both orientations.

Another assay addresses T4, 4H1513-AA.
T4 chain: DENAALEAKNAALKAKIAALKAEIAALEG
In words: two-hybrid library CCmax.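 Further: natural log of median RNA to DNA barcode read ratio; higher means stronger binding.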 To be noted: mean of both orientations.

The target of a further assay is T5, 4H1594-AA.
T5 chain: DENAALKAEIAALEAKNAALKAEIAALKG
In words: two-hybrid library CCmax. As to conditions: mean of both orientations.

The target of another assay is T6, 4H1629-AA.
T6 chain: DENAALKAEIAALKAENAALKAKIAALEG
Nature of the assay: two-hybrid library CCmax. To be noted: mean of both orientations.

In the next assay the target is T7, 4H1845-AA.
T7 chain: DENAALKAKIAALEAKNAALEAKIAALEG
Nature of the assay: two-hybrid library CCmax. To be noted: mean of both orientations.

The next assay has as its target T8, 4H1874-AA.
T8 chain: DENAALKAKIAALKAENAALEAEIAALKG
In words: two-hybrid library CCmax. As to conditions: mean of both orientations.

The next assay addresses T9, 4H2198-AA.
T9 chain: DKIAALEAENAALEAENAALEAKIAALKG
In words: two-hybrid library CCmax. As to conditions: mean of both orientations.

In a further assay the target is T10, 4H2553-AA.
T10 chain: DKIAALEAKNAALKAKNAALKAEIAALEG
In words: two-hybrid library CCmax. To be noted: mean of both orientations.

Another assay concerns the target T11, 4H2611-AA.
T11 chain: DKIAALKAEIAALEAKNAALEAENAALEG
Nature of the assay: two-hybrid library CCmax. To be noted: mean of both orientations.

The target in another assay is T12, 4H2620-AA.
T12 chain: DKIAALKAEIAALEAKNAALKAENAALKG
Nature of the assay: two-hybrid library CCmax. To be noted: mean of both orientations.

For another assay, the target named is T13, 4H2648-AA.
T13 chain: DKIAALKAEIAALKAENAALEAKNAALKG
In words: two-hybrid library CCmax. As to conditions: mean of both orientations.

For the next assay, the target named is T14, 4H2907-AA.
T14 chain: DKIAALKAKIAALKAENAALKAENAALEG
In words: two-hybrid library CCmax. To be noted: mean of both orientations.

A further assay concerns the target T15, 4H3056-AA.
T15 chain: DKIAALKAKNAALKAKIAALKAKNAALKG
Nature of the assay: two-hybrid library CCmax. To be noted: mean of both orientations.

Another assay deals with T16, 4H3133-AA.
T16 chain: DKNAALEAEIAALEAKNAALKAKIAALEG
Nature of the assay: two-hybrid library CCmax. As to conditions: mean of both orientations.

For a further assay, the target named is T17, 4H3162-AA.
T17 chain: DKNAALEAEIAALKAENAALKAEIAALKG
Nature of the assay: two-hybrid library CCmax. To be noted: mean of both orientations.

Another assay has as its target T18, 4H32-AA.
T18 chain: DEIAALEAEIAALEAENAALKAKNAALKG
In words: two-hybrid library CCmax. To be noted: mean of both orientations.

The target of the next assay is T19, 4H3378-AA.
T19 chain: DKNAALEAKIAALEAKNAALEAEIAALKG
In words: two-hybrid library CCmax.

The next assay has as its target T20, 4H340-AA.
T20 chain: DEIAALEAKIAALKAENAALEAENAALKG
In words: two-hybrid library CCmax. To be noted: mean of both orientations.

The target of another assay is T21, 4H3413-AA.
T21 chain: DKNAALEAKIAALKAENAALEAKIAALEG
Nature of the assay: two-hybrid library CCmax. As to conditions: mean of both orientations.

Another assay has as its target T22, 4H3588-AA.
T22 chain: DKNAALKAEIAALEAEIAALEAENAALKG
Nature of the assay: two-hybrid library CCmax. To be noted: mean of both orientations.

Another assay has as its target T23, 4H3606-AA.
T23 chain: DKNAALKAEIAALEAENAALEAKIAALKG
In words: two-hybrid library CCmax. As to conditions: mean of both orientations.

Another assay concerns the target T24, 4H3631-AA.
T24 chain: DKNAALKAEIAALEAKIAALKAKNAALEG
Nature of the assay: two-hybrid library CCmax.

The target of another assay is T25, 4H3697-AA.
T25 chain: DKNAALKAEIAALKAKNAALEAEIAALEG
Nature of the assay: two-hybrid library CCmax. As to conditions: mean of both orientations.

Another assay addresses T26, 4H3718-AA.
T26 chain: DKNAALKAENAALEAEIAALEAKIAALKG
In words: two-hybrid library CCmax. As to conditions: mean of both orientations.

The target in the next assay is T27, 4H384-AA.
T27 chain: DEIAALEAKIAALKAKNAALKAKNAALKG
Nature of the assay: two-hybrid library CCmax. To be noted: mean of both orientations.

Another assay has as its target T28, 4H3865-AA.
T28 chain: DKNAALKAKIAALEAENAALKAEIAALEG
Nature of the assay: two-hybrid library CCmax. To be noted: mean of both orientations.

The next assay has as its target T29, 4H697-AA.
T29 chain: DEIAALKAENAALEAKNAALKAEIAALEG
In words: two-hybrid library CCmax. To be noted: mean of both orientations.

Another assay concerns the target T30, 4H982-AA.
T30 chain: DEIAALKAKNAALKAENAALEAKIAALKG
In words: two-hybrid library CCmax. To be noted: mean of both orientations.

A further assay addresses T31, 4H2915-bA.
T31 chain: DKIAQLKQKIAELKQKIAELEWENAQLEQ
In words: two-hybrid library CCNG1.

A further assay concerns the target T32, 4H3057-bA.
T32 chain: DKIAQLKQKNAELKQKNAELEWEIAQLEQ
Nature of the assay: two-hybrid library CCNG1.

Another assay addresses T33, 4H319-bA.
T33 chain: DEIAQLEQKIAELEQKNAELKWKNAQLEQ
Nature of the assay: two-hybrid library CCNG1.

For another assay, the target named is T34, 4H3277-bA.
T34 chain: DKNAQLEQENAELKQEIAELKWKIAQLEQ
Nature of the assay: two-hybrid library CCNG1.

The next assay concerns the target T35, 4H348-bA.
T35 chain: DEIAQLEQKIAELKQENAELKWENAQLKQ
In words: two-hybrid library CCNG1.

For the next assay, the target named is T36, 4H3855-bN.
T36 chain: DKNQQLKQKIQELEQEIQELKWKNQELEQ
In words: two-hybrid library CCNG1.

A further assay deals with T37, 4H40-bA.
T37 chain: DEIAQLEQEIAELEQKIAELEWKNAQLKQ
Nature of the assay: two-hybrid library CCNG1.

In a further assay the target is T38, 4H477-bA.
T38 chain: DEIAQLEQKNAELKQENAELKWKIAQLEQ
Nature of the assay: two-hybrid library CCNG1.

For the next assay, the target named is T39, 4H492-bA.
T39 chain: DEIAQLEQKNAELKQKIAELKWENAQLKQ
Nature of the assay: two-hybrid library CCNG1.

The target in a further assay is T40, 4H741-bA.
T40 chain: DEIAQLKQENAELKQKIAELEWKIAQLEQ
In words: two-hybrid library CCNG1.

A further assay has as its target T41, O11-bA.
T41 chain: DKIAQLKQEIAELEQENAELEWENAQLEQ
Nature of the assay: two-hybrid library CCNG1.

As for DENAALEAKIAALKAEIAALEAKNAALEG [4H1351-AA], the interaction score in the assay with 4H1351-AA was 0.323; with 4H1388-AA, -0.254; in the assay with 4H1401-AA it was -1.25; with 4H1513-AA, -0.583; with 4H1594-AA it was -1.24; with 4H1629-AA, -1.62. Further, the interaction score was -1.17 with 4H1845-AA; -1.67 in the assay with 4H1874-AA; -1.4 with 4H2198-AA; -1.95 in the assay with 4H2553-AA; -0.748 with 4H2611-AA; -0.325 in the assay with 4H2620-AA. The interaction score with 4H2648-AA was -0.804; with 4H2907-AA, -1.52; with 4H3056-AA it was -1.54; in the assay with 4H3133-AA, -0.555; in the assay with 4H3162-AA, -1.42; with 4H32-AA, -0.591. Besides, the interaction score is -1.5 with 4H3378-AA; -1 with 4H340-AA; -1.34 with 4H3413-AA; 0.934 in the assay with 4H3588-AA; -1.64 with 4H3606-AA; 2.1 in the assay with 4H3631-AA. In addition, the interaction score with 4H3697-AA is -1.37; with 4H3718-AA, 0.664; in the assay with 4H384-AA it was 0.76; with 4H3865-AA, -1.73; with 4H697-AA, -1.65; with 4H982-AA it was -0.516.

Consider DKIAQLKQKIAELKQKIAELEWENAQLEQ [4H2915-bA], for which the interaction score with 4H2915-bA was 0.656; with 4H3057-bA it was -0.856; in the assay with 4H319-bA it was 1.12; in the assay with 4H3277-bA, -1.17; with 4H348-bA, -1.42; with 4H3855-bN it was 0.188. The interaction score is 1.35 with 4H40-bA; -1.05 with 4H477-bA; -1.03 in the assay with 4H492-bA; -0.66 with 4H741-bA; 0.236 in the assay with O11-bA.
